According to US20180125924A1 (NORTHWESTERN UNIVERSITY, published 2018):
Groups on a side chain read outwards from the residue. No end group written: not given here. *: point of attachment. triazole = 1,2,3-triazole formed by click reaction linking the lysine-side-chain spacer to the azidoethyl glycoside; Palmitoyl = CCCCCCCCCCCCCCCC(=O)*

Target: recombinant human BMP-2 obtained from Medtronic Sofamor Danek (human, UniProt P12643 283-396)
Assay: cell-based or functional assay

Sequence of recombinant human BMP-2 obtained from Medtronic Sofamor Danek (P12643 283-396 limits assumed): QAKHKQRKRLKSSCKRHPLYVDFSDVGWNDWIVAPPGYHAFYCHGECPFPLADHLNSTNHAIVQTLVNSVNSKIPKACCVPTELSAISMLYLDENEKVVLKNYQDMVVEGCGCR

Palmitoyl-VVAAEEK([COCH2(O(CH2)2)2NHCO(CH2)2-triazole-ethyl-2‑acetamido‑3,4,6‑tri‑O‑sulfo‑2‑deoxy‑beta‑D‑glycopyranoside]) (also: self-assembled nanofibers) [3,4,6S-GlcNAc PA (PA 1) nanofibers]
ALP activity in C2C12 cells treated with BMP-2 (75 ng/mL) and PA nanofibers (25 uM): 9 fold
